Target: NbWRKY40 (GST fusion implied by GST control) (Nicotiana benthamiana, UniProt A0A7T1TE48 1-255)
Experiment: EMSA; LightShift Chemiluminescent EMSA Kit (Thermo Scientific), manufacturer's instructions; buffer, salt, pH and temperature not stated
Conditions: protein: recombinant; label: biotin (end label); blunt

Chain of NbWRKY40 (GST fusion implied by GST control) (A0A7T1TE48 entry or part of it): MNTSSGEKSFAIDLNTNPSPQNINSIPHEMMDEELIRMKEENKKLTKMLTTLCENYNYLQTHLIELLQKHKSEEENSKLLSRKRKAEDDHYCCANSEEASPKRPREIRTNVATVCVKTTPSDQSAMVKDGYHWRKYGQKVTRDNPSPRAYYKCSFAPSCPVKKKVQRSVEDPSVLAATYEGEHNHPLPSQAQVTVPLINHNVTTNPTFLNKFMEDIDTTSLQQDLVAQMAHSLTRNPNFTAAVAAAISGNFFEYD

B1: NbICS1 promoter W-box fragment (84 bp) (dsDNA)
DNA 1: TAGTACAGAATATGAAGAAAGCTTTGCATATGGTGTTTATTGACCTAGAGAAAGTGTACATCAAGGTCCCTAGGGATGTCCTTT
DNA 2: AAAGGACATCCCTAGGGACCTTGATGTACACTTTCTCTAGGTCAATAAACACCATATGCAAAGCTTTCTTCATATTCTGTACTA
  binding result: binds

Reference: paper PMC7857026, “NbWRKY40 Positively Regulates the Response of Nicotiana benthamiana to Tomato Mosaic Virus via Salicylic Acid Signaling”
